Laboratory results published in PMC10840093.
Like-named read-outs stand apart in the source and are kept apart here.

Measured: degradation_or_half_life

LSD1: LSD1-3KR (K424, K432, K481)
decreases: ubiquitination at K424 | ubiquitination at K432 | ubiquitination at K481
